This data set is described as follows: yeast display, Sf9 membrane polyspecificity reagent, FACS + sequencing; frameworks hold sequencing errors. An outline of the steps:
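Galactose-induced (36–48 hours) yeast carrying a synthetic nanobody display library were exposed to 10% biotinylated, detergent-solubilized Sf9 membrane reagent at 4 °C for 1 hour. FACS followed streptavidin microbead enrichment, using low and high (top ~1%) gates for expression (anti-HA) and reagent binding (streptavidin). Colony PCR, MiSeq 2 × 250 sequencing and CDR-length filtering followed. Labels for polyreactivity reflect the gate of origin.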
With “QVQLVESGGGLVQAGGSLRLSCAASGFIFTSYAMGWYRQAPGKERELVAAISKRGGSTYYADSVKGRFTISRDNAKNTVYLQMNSLKPEDTAVYYCATRYPQPYSPGYTYDYWGLGTQVTVSS”, the “polyreactivity (PSR sort gate)” value is “high polyreactivity”.

With “QVQLVESGGGLVQAGGSLRLSCAASGFIFTVYAMGWSRQAPGKERELVAAISRGGGSTSYADSVKGRFTISRDNAKNTVYLQMNSLKPEDTAVYYCNAKYKYSRGYDYWGQGTQVTVSS”, the “polyreactivity (PSR sort gate)” value is “high polyreactivity”.

Consider “QVQLVESGGGLVQAGGSLRLSCAASGFIFTWYDMGWYRQAPGKERELVAAISRSGGSTYYADSVKGRFTISRDNAKNTVYLQMNSLKPEDTAVYYCIVYRSKKRYGWGEDDYWGQGSQVTVSS”, for which the “polyreactivity (PSR sort gate)” value is listed as “high polyreactivity”.

In the case of “QVQLVESGGGLVQAGGSLRLSCAASGFIFTWYTMGWSRQAPGKERELVAAITSGGNTNYADSVKGRFTISRDNAKNTVYLQMNSLKPEDTSVYYCALGYLASRLKFAKYDYWGQGTQVNVSS”, the “polyreactivity (PSR sort gate)” value is “high polyreactivity”.

With “QVQLVESGGGLVQAGGSLRLSCAASGFIFTYNDMGWYRQAPGKERELVASISWDGGRTYYADSVKRRFTISRDNAKNTVYLQMNSLKPEDTADYYWDKRLGGSPIQARGDYWGQCTQVTVSS”, the “polyreactivity (PSR sort gate)” value was “low polyreactivity”.

For the sequence “QVQLVESGGGLVQAGGSLRLSCAASGFIFTYYAMGWYRQAPGKERELVAAIRRGGNTYYADSVKGRFTISRDNAKNTVYLQMNSLKPEDTAVYYCAASAGPRASYYYWGQGTQVTVSS”, the “polyreactivity (PSR sort gate)” value is recorded as “high polyreactivity”.

“QVQLVESGGGLVQAGGSLRLSCAASGFIFTYYAMGWYRQAPGKERELVAAISSSGGRTAYADSVKGRFTISRDNAKNTVYLQMNSLKPEDTAVYFCNARGTYRVANYDYWGQGTQVTVSS”: the “polyreactivity (PSR sort gate)” value is on record as “high polyreactivity”.

On to “QVQLVESGGGLVQAGGSLRLSCAASGFIFVDYAMGWYRQAPGKERELVAAISSSGSTTYADSVKGRFTISRDNAKNIVYLQMNSLKPEDTAVYYCAAGLPRVLKDATFDYWGQGTQVTVSS”, for which the “polyreactivity (PSR sort gate)” value was “low polyreactivity”.

Take “QVQLVESGGGLVQAGGSLRLSCAASGFIFVDYDMGWYRQAPGKERELVAAITDSGTSTYYADSVKGRFTISRDNAKNTVYLQMNSLKPEDTAVYYCNTDVSPSFDYWGQGTQVTVSS”: the “polyreactivity (PSR sort gate)” value was “low polyreactivity”.

Regarding “QVQLVESGGGLVQAGGSLRLSCAASGFIFVGNAMGGYRQAPGKERELVAAITSTDNTTYADSVKGRFTISRDNAKNTVYLQMNSLKPEDTAVYYCNARGYPYLYGYDYWGQGTQVTVSS”, the “polyreactivity (PSR sort gate)” value is reported as “low polyreactivity”.

For the sequence “QVQLVESGGGLVQAGGSLRLSCAASGFIFVLYSMGWYRQAPGKERELVAGITGSTDTYYADSVKGRFTISRDNAKNTVYLQMNSLKPEDTAVYYCAAGRLRIWYDSWGQGTQVTVSS”, the “polyreactivity (PSR sort gate)” value is recorded as “low polyreactivity”.

As for “QVQLVESGGGLVQAGGSLRLSCAASGFIFVNKAMGWYRQAPGKERELVATISRGGSTNYADSVKGRFTISRDNAKNTVYLQMNSLKPEDTAVYYCNARRSVKVYGVDYWGQGTQVTVSS”, the “polyreactivity (PSR sort gate)” value is reported as “high polyreactivity”.

“QVQLVESGGGLVQAGGSLRLSCAASGFIFVQNVMGWYRQAPGKERELVAAITWRGTSTYYADSVKGRFTISRDNAKNTVYLLMNSLKPEDTAVYDWNVDLQEDCEEYDYWGQGTQVTVSS”: the “polyreactivity (PSR sort gate)” value was “low polyreactivity”.

Take “QVQLVESGGGLVQAGGSLRLSCAASGFIFVQYAMGWYRQAPGKERELVAAISKGGGSTYYADSVKGRFTISRDNAKNTVYLQMNSLKPEDTAVYDCNADKVTRVTYWDDSWGQGTQVTVSS”: the “polyreactivity (PSR sort gate)” value was “high polyreactivity”.

Consider “QVQLVESGGGLVQAGGSLRLSCAASGFIFVRYAMGWYRQAPGKERELVAAITKGGGRTYYADSVKGRFTISRDNAKNTVYLQMNSLKPEDTAVYYCATAGAHGRERDYWGQGTQVTVSS”, for which the “polyreactivity (PSR sort gate)” value is on record as “high polyreactivity”.

Turning to “QVQLVESGGGLVQAGGSLRLSCAASGFIFVSKAMGWSRQAPGKERELVAAITTGGSTNYADSVKGRFTISRDNAKYTVYLLMNSLKPEDTAVYYCAADGRYSTYIYLHDYWGQGTQVTVSS”, the “polyreactivity (PSR sort gate)” value is reported as “low polyreactivity”.

Regarding “QVQLVESGGGLVQAGGSLRLSCAASGFIFVSYAMGWDRQAPGKERELVATITWGGGSTYYADSVKGRFTISRDNAKNTVYLQMNSLKPVDTAVYYCAADYPYSPIFDRYVEYEYWGQGTQVTVSS”, the “polyreactivity (PSR sort gate)” value is recorded as “low polyreactivity”.

For the sequence “QVQLVESGGGLVQAGGSLRLSCAASGFIFVWYAMGWYRQAPGKEREMVAAISFSGSSTYYADSVKGRFTITRDNAKNTVYLQMNSLKPEDTAVYYCAKRIAKYIPRYKFDYWGQGTQVTVSS”, the “polyreactivity (PSR sort gate)” value was “high polyreactivity”.

Consider “QVQLVESGGGLVQAGGSLRLSCAASGFIFVYNAMGWYRQAPGKERELVAVISSGGSTYYADSVKGRFTISRDNAKNTVYLQMNSLKPEDTAVYYCNKRRYDIKDEYDYWGQGTQVTVSS”, for which the “polyreactivity (PSR sort gate)” value was “low polyreactivity”.

On to “QVQLVESGGGLVQAGGSLRLSCAASGFIFWDNTMGWYRQAPGKERELVAAISGGDGTYYADSVKGRFTISRDNAKNTVYLQLNSLKPEDTAVYYCNAATAEVKLYGKYDYWGQGTQVTVSS”, for which the “polyreactivity (PSR sort gate)” value is listed as “low polyreactivity”.

On to “QVQLVESGGGLVQAGGSLRLSCAASGFIFWDYAMGWNRQAPRKERELVAAISDSGGDTYYADSVKGRFTISRDNAKNTVYLQMNSLIPEDTAVYYCAADVVLWVFRGQQYDYWGQGTQVTVSS”, for which the “polyreactivity (PSR sort gate)” value is given as “low polyreactivity”.

For “QVQLVESGGGLVQAGGSLRLSCAASGFIFWINAMGWYRQAPGKERELVAAITKNGGTTYYADSVKGRFTISRDNAKNTVYLLMNSLKPEDTAVYYCAAGGIGGDQEVEGPMNYWGQGTQVTVSS”, the “polyreactivity (PSR sort gate)” value was “low polyreactivity”.

Take “QVQLVESGGGLVQAGGSLRLSCAASGFIFWLNAMGWYRQAPGKERELVAAISIGGRTNYADSVKGRFTISRDNAKNTVYLQMNSLKPEDTAVYYCNKDYRSVYKGRGFDYWGQGTQVTVSS”: the “polyreactivity (PSR sort gate)” value is “low polyreactivity”.

With “QVQLVESGGGLVQAGGSLRLSCAASGFIFWLYAMGWYRQAPGKEREVVAGITRGGGSTYYADSVKGRFTISRDNAKNTVYLQMNSLKPEDTAVYYCAADAWSSYLDRPFDYWGQGTQVTVSS”, the “polyreactivity (PSR sort gate)” value is “high polyreactivity”.

“QVQLVESGGGLVQAGGSLRLSCAASGFIFWLYPMGWYRQAPGKERELVAAISSSGGNTYYADSVKGRFTISRDNAKNTVDLQMISLKPEDTAVYYCAASYSYGRTYSGYYWGQGTQVTVSS”: the “polyreactivity (PSR sort gate)” value is recorded as “low polyreactivity”.

On to “QVQLVESGGGLVQAGGSLRLSCAASGFIFWRNAMGWYRQAPGKEREFVARISSSGGSTYYADSVKGRFTISRDNAKNTVYLQMNSLKPEDTAVYYCNADVWYRYGYFRYDYWGQGTQVTVSS”, for which the “polyreactivity (PSR sort gate)” value is listed as “high polyreactivity”.

As for “QVQLVESGGGLVQAGGSLRLSCAASGFIFWSYAMGWYRQAPGKERELVAAITRRGGSTYYADSVKGRFTISRDNAKNTVYLQMNSLKPEDTAVYYCNARRTYNGPVYPYYSGVNYWGQGTQVTVSS”, the “polyreactivity (PSR sort gate)” value is recorded as “high polyreactivity”.

For “QVQLVESGGGLVQAGGSLRLSCAASGFIFWSYAMVWYRQAPGKERELVAAISHGGSTNYADSVKGRFTISRDNSKNTVYLQMNSLKPEDTAVYYCAKDELYIPGVWPYYEYDYWGQGTQVTVSS”, the “polyreactivity (PSR sort gate)” value is reported as “low polyreactivity”.

As for “QVQLVESGGGLVQAGGSLRLSCAASGFIFWTYAMGWYRQAPGKERELVAAITGGGGTTYYADSVKGRFTISRDTAKNTVYLQMNSLKPEDTAVYYCAAKQYRSRSGGYWGQGTQVTVSS”, the “polyreactivity (PSR sort gate)” value is “high polyreactivity”.

Take “QVQLVESGGGLVQAGGSLRLSCAASGFIFWVYAMGWYIQAPGKERELVAAITSGGGSTYYADSVKGRFTISRDNAKNTVYIQMNSLKPDDTAVYYCATRIRTVAYNYWGQGTQVTVSS”: the “polyreactivity (PSR sort gate)” value is on record as “high polyreactivity”.

In the case of “QVQLVESGGGLVQAGGSLRLSCAASGFIFWWYNMGWYRQAPGKERELVAAISGSGGSTYYADSVKGRFTISRDNAKNTVYLQMNSLKPEHTAVYYCAALFGTGQFYYRYDYWGQGTQVTVSS”, the “polyreactivity (PSR sort gate)” value is “high polyreactivity”.

In the case of “QVQLVESGGGLVQAGGSLRLSCAASGFIFWYNAKGWYRQAPGKERELVAAISSGGSTHYADSVKGRFTISRDNAKNTVYLLMNSLKPEDTAVYYCNTDGYHSNRLDDYDYWRQGTQVTVSS”, the “polyreactivity (PSR sort gate)” value is listed as “low polyreactivity”.

With “QVQLVESGGGLVQAGGSLRLSCAASGFIFWYNAMGWYRQAPGKERELVAVISTSGTITYYADSVKGRFTISRDNAKNTVYLQMNSLKPEDTAVYYCAARYYQRANGFGYWGQGTQVTVSS”, the “polyreactivity (PSR sort gate)” value is given as “low polyreactivity”.

For “QVQLVESGGGLVQAGGSLRLSCAASGFIFWYYALGWYRQAPGKERELVAAISARDGSTYYADSVKGRFTISRDNAKNTVYLQMNSLKPEDTAVYYCNAVQRYPKFRMDYWGQGTQVTVSS”, the “polyreactivity (PSR sort gate)” value is on record as “low polyreactivity”.

“QVQLVESGGGLVQAGGSLRLSCAASGFIFWYYGMGWYRQAPGKERELVAAINWSGTSTNYADSVKGRFTISRDNAKNTVYLQMNSLKPEDTAVYYCAAEYWYTYSWGQGTQVTVLS”: the “polyreactivity (PSR sort gate)” value is reported as “low polyreactivity”.

“QVQLVESGGGLVQAGGSLRLSCAASGFIFYAMGWYRQAPGKERELVAAITLSDGTTYYADSVKGRFTISRDNAKNTVYLQMNSLKPEDTAVYYCAAEYSVPYRGWDGYEYWGQGTQVTVSS”: the “polyreactivity (PSR sort gate)” value is given as “low polyreactivity”.

With “QVQLVESGGGLVQAGGSLRLSCAASGFIFYAYAMGWYRQAPGKERELVPAISRRGGSTYYADSVKGRFTISRDNAKNTVYLQMNSLKPEDTAVYYCARDWTLGRSGPKYGYWGQGTQVTVSS”, the “polyreactivity (PSR sort gate)” value was “high polyreactivity”.

Regarding “QVQLVESGGGLVQAGGSLRLSCAASGFIFYDYTMGWYRQAPGKERELVAAISSRGGSTYYADSVKGRFTISRDNAKNTVYLQMNSLKPEDTAVYYCAAYWSQQTYEYWGQGTQVTVSS”, the “polyreactivity (PSR sort gate)” value is reported as “high polyreactivity”.

As to “QVQLVESGGGLVQAGGSLRLSCAASGFIFYEYAMGWYRQAPGKERELVAAISSGGDTNYADSVKGRFTISRDNANNTVYLQMNSLKPEDTAVYYCAKDYSDPGWAEYDYWGQGTQVTVSS”, the “polyreactivity (PSR sort gate)” value is given as “low polyreactivity”.

Consider “QVQLVESGGGLVQAGGSLRLSCAASGFIFYEYAMGWYRQAPGKERELVARITRSDGSTYYADSVKGRFTISRDNAKNTVYFQMNSLKPEDTAVYYCNVRRAYYRRGPYYSTYYYWGQGTQVTVSS”, for which the “polyreactivity (PSR sort gate)” value is “high polyreactivity”.

On to “QVQLVESGGGLVQAGGSLRLSCAASGFIFYGNAMGWYRPAPGKERELVAAIRWNGGRTYYADSVKGRFTISRDNAKNTVYLQMNSLKAEDTAVYYCAARISQLKYGYWGQGTQVTVSS”, for which the “polyreactivity (PSR sort gate)” value is reported as “high polyreactivity”.

Values taken from the nanobody polyreactivity screen of Harvey et al. (2022).
